The text below walks through data of PMC10709652, “The separation pin distinguishes the pro– and anti–recombinogenic functions of Saccharomyces cerevisiae Srs2” (Nature Communications, 2023).

B1: Srs2^898 (GFP-Srs2 1-898) (Saccharomyces cerevisiae S288C; F219A) (protein)
chain: MSSNNDLWLHLVSQLNTQQRAAALFDYTRGLQVIAGPGTGKTKVLTSRVAYLILHHHIHPRDIIVTTFTNKAANEMKERLQEMLRGAGVNISELLIGTFHSICLKILYRFGHLVDLQKDWRIIDEKEIDVILDDMIEKVPDQIRDYASSITRKVNLCMPSKNGDEWTIHPKLIKKQISKLKSNAILPEEYILDSNHDAALGYFYQIYQSELSKKNTLDADDLLMYTFRLLTRVRVLSNIKHVLVDEFQDTNGIQLDLMFLFAKGNHHLSRGMTIVGDPDQSIYAFRNALAHNFLEMGRKCPIEYSTIILVENYRSSQKILNTSEILITQQNKGRQNRAPLRAQFDLDFPPVYMNFPAYFLEAPSLVRELLYLKALPNLFTFNDFAILVRQRRQIKRIESALIEHRIPYKIIRGHSFWDSKETRAMLNLLKLIFSPNDKHAILASLLYPARGLGPATGEKIKNALDTLATDVSCFQILKDISSKKIMLDIPTKGRSVIADFISMIENCQLLLQSTLLGGLSDLFDKLYELSGLKYEYLYKDGKKKNDQLEKSEPNLLNARHKNIELLKNYFLALLSKSESSDKEKNEAIKAATDEAEPIENKVITPKEYLRNFFNSLSLHSDAAEEEESESNKDAKIKREKNGFVTISTIHGAKGLEWPVVFIPGCEEGIIPCVFNDDKKDESEEDEEEDQENSKKDASPKKTRVLSVEDSIDEERRMFFVAQTRAKYLLYLSNTVTVEDVDRPRIASRFLTTDLIKAMSDSQKLFESTNSIKKLYRILNKKPPAEDDKLFSLDQLRKDYNQFIENRRERMIWQGIQMNDVYGIQLSRNKLLGSVSDFTSAADQLRLETQNSIFPQKKLIEKSRPSKINGNYAPKSRVKSPEKRYAPETTSFHSPTKKK
notes: residues 1-898 of 1174 (C-terminal 276 residues omitted), N-terminal GFP tag kept, pET15b, Talon purified; expressed in E. coli Rosetta2 (DE3)
B2: Srs2^898 (GFP-Srs2 1-898) (Saccharomyces cerevisiae S288C; H100A) (protein)
chain: MSSNNDLWLHLVSQLNTQQRAAALFDYTRGLQVIAGPGTGKTKVLTSRVAYLILHHHIHPRDIIVTTFTNKAANEMKERLQEMLRGAGVNISELLIGTFASICLKILYRFGHLVDLQKDWRIIDEKEIDVILDDMIEKVPDQIRDYASSITRKVNLCMPSKNGDEWTIHPKLIKKQISKLKSNAILPEEYILDSNHDAALGYFYQIYQSELSKKNTLDFDDLLMYTFRLLTRVRVLSNIKHVLVDEFQDTNGIQLDLMFLFAKGNHHLSRGMTIVGDPDQSIYAFRNALAHNFLEMGRKCPIEYSTIILVENYRSSQKILNTSEILITQQNKGRQNRAPLRAQFDLDFPPVYMNFPAYFLEAPSLVRELLYLKALPNLFTFNDFAILVRQRRQIKRIESALIEHRIPYKIIRGHSFWDSKETRAMLNLLKLIFSPNDKHAILASLLYPARGLGPATGEKIKNALDTLATDVSCFQILKDISSKKIMLDIPTKGRSVIADFISMIENCQLLLQSTLLGGLSDLFDKLYELSGLKYEYLYKDGKKKNDQLEKSEPNLLNARHKNIELLKNYFLALLSKSESSDKEKNEAIKAATDEAEPIENKVITPKEYLRNFFNSLSLHSDAAEEEESESNKDAKIKREKNGFVTISTIHGAKGLEWPVVFIPGCEEGIIPCVFNDDKKDESEEDEEEDQENSKKDASPKKTRVLSVEDSIDEERRMFFVAQTRAKYLLYLSNTVTVEDVDRPRIASRFLTTDLIKAMSDSQKLFESTNSIKKLYRILNKKPPAEDDKLFSLDQLRKDYNQFIENRRERMIWQGIQMNDVYGIQLSRNKLLGSVSDFTSAADQLRLETQNSIFPQKKLIEKSRPSKINGNYAPKSRVKSPEKRYAPETTSFHSPTKKK
notes: as for B1
B3: Srs2^898 (GFP-Srs2 1-898) (Saccharomyces cerevisiae S288C; R389A) (protein)
chain: MSSNNDLWLHLVSQLNTQQRAAALFDYTRGLQVIAGPGTGKTKVLTSRVAYLILHHHIHPRDIIVTTFTNKAANEMKERLQEMLRGAGVNISELLIGTFHSICLKILYRFGHLVDLQKDWRIIDEKEIDVILDDMIEKVPDQIRDYASSITRKVNLCMPSKNGDEWTIHPKLIKKQISKLKSNAILPEEYILDSNHDAALGYFYQIYQSELSKKNTLDFDDLLMYTFRLLTRVRVLSNIKHVLVDEFQDTNGIQLDLMFLFAKGNHHLSRGMTIVGDPDQSIYAFRNALAHNFLEMGRKCPIEYSTIILVENYRSSQKILNTSEILITQQNKGRQNRAPLRAQFDLDFPPVYMNFPAYFLEAPSLVRELLYLKALPNLFTFNDFAILVAQRRQIKRIESALIEHRIPYKIIRGHSFWDSKETRAMLNLLKLIFSPNDKHAILASLLYPARGLGPATGEKIKNALDTLATDVSCFQILKDISSKKIMLDIPTKGRSVIADFISMIENCQLLLQSTLLGGLSDLFDKLYELSGLKYEYLYKDGKKKNDQLEKSEPNLLNARHKNIELLKNYFLALLSKSESSDKEKNEAIKAATDEAEPIENKVITPKEYLRNFFNSLSLHSDAAEEEESESNKDAKIKREKNGFVTISTIHGAKGLEWPVVFIPGCEEGIIPCVFNDDKKDESEEDEEEDQENSKKDASPKKTRVLSVEDSIDEERRMFFVAQTRAKYLLYLSNTVTVEDVDRPRIASRFLTTDLIKAMSDSQKLFESTNSIKKLYRILNKKPPAEDDKLFSLDQLRKDYNQFIENRRERMIWQGIQMNDVYGIQLSRNKLLGSVSDFTSAADQLRLETQNSIFPQKKLIEKSRPSKINGNYAPKSRVKSPEKRYAPETTSFHSPTKKK
notes: as for B1
B4: Srs2^898 (GFP-Srs2 1-898) (Saccharomyces cerevisiae S288C; Y283A) (protein)
chain: MSSNNDLWLHLVSQLNTQQRAAALFDYTRGLQVIAGPGTGKTKVLTSRVAYLILHHHIHPRDIIVTTFTNKAANEMKERLQEMLRGAGVNISELLIGTFHSICLKILYRFGHLVDLQKDWRIIDEKEIDVILDDMIEKVPDQIRDYASSITRKVNLCMPSKNGDEWTIHPKLIKKQISKLKSNAILPEEYILDSNHDAALGYFYQIYQSELSKKNTLDFDDLLMYTFRLLTRVRVLSNIKHVLVDEFQDTNGIQLDLMFLFAKGNHHLSRGMTIVGDPDQSIAAFRNALAHNFLEMGRKCPIEYSTIILVENYRSSQKILNTSEILITQQNKGRQNRAPLRAQFDLDFPPVYMNFPAYFLEAPSLVRELLYLKALPNLFTFNDFAILVRQRRQIKRIESALIEHRIPYKIIRGHSFWDSKETRAMLNLLKLIFSPNDKHAILASLLYPARGLGPATGEKIKNALDTLATDVSCFQILKDISSKKIMLDIPTKGRSVIADFISMIENCQLLLQSTLLGGLSDLFDKLYELSGLKYEYLYKDGKKKNDQLEKSEPNLLNARHKNIELLKNYFLALLSKSESSDKEKNEAIKAATDEAEPIENKVITPKEYLRNFFNSLSLHSDAAEEEESESNKDAKIKREKNGFVTISTIHGAKGLEWPVVFIPGCEEGIIPCVFNDDKKDESEEDEEEDQENSKKDASPKKTRVLSVEDSIDEERRMFFVAQTRAKYLLYLSNTVTVEDVDRPRIASRFLTTDLIKAMSDSQKLFESTNSIKKLYRILNKKPPAEDDKLFSLDQLRKDYNQFIENRRERMIWQGIQMNDVYGIQLSRNKLLGSVSDFTSAADQLRLETQNSIFPQKKLIEKSRPSKINGNYAPKSRVKSPEKRYAPETTSFHSPTKKK
notes: as for B1
B5: Srs2^898 (GFP-Srs2 1-898) (Saccharomyces cerevisiae S288C; N70A) (protein)
chain: MSSNNDLWLHLVSQLNTQQRAAALFDYTRGLQVIAGPGTGKTKVLTSRVAYLILHHHIHPRDIIVTTFTAKAANEMKERLQEMLRGAGVNISELLIGTFHSICLKILYRFGHLVDLQKDWRIIDEKEIDVILDDMIEKVPDQIRDYASSITRKVNLCMPSKNGDEWTIHPKLIKKQISKLKSNAILPEEYILDSNHDAALGYFYQIYQSELSKKNTLDFDDLLMYTFRLLTRVRVLSNIKHVLVDEFQDTNGIQLDLMFLFAKGNHHLSRGMTIVGDPDQSIYAFRNALAHNFLEMGRKCPIEYSTIILVENYRSSQKILNTSEILITQQNKGRQNRAPLRAQFDLDFPPVYMNFPAYFLEAPSLVRELLYLKALPNLFTFNDFAILVRQRRQIKRIESALIEHRIPYKIIRGHSFWDSKETRAMLNLLKLIFSPNDKHAILASLLYPARGLGPATGEKIKNALDTLATDVSCFQILKDISSKKIMLDIPTKGRSVIADFISMIENCQLLLQSTLLGGLSDLFDKLYELSGLKYEYLYKDGKKKNDQLEKSEPNLLNARHKNIELLKNYFLALLSKSESSDKEKNEAIKAATDEAEPIENKVITPKEYLRNFFNSLSLHSDAAEEEESESNKDAKIKREKNGFVTISTIHGAKGLEWPVVFIPGCEEGIIPCVFNDDKKDESEEDEEEDQENSKKDASPKKTRVLSVEDSIDEERRMFFVAQTRAKYLLYLSNTVTVEDVDRPRIASRFLTTDLIKAMSDSQKLFESTNSIKKLYRILNKKPPAEDDKLFSLDQLRKDYNQFIENRRERMIWQGIQMNDVYGIQLSRNKLLGSVSDFTSAADQLRLETQNSIFPQKKLIEKSRPSKINGNYAPKSRVKSPEKRYAPETTSFHSPTKKK
notes: as for B1
B6: Srs2^898 (GFP-Srs2 1-898) (Saccharomyces cerevisiae S288C) (protein)
chain: MSSNNDLWLHLVSQLNTQQRAAALFDYTRGLQVIAGPGTGKTKVLTSRVAYLILHHHIHPRDIIVTTFTNKAANEMKERLQEMLRGAGVNISELLIGTFHSICLKILYRFGHLVDLQKDWRIIDEKEIDVILDDMIEKVPDQIRDYASSITRKVNLCMPSKNGDEWTIHPKLIKKQISKLKSNAILPEEYILDSNHDAALGYFYQIYQSELSKKNTLDFDDLLMYTFRLLTRVRVLSNIKHVLVDEFQDTNGIQLDLMFLFAKGNHHLSRGMTIVGDPDQSIYAFRNALAHNFLEMGRKCPIEYSTIILVENYRSSQKILNTSEILITQQNKGRQNRAPLRAQFDLDFPPVYMNFPAYFLEAPSLVRELLYLKALPNLFTFNDFAILVRQRRQIKRIESALIEHRIPYKIIRGHSFWDSKETRAMLNLLKLIFSPNDKHAILASLLYPARGLGPATGEKIKNALDTLATDVSCFQILKDISSKKIMLDIPTKGRSVIADFISMIENCQLLLQSTLLGGLSDLFDKLYELSGLKYEYLYKDGKKKNDQLEKSEPNLLNARHKNIELLKNYFLALLSKSESSDKEKNEAIKAATDEAEPIENKVITPKEYLRNFFNSLSLHSDAAEEEESESNKDAKIKREKNGFVTISTIHGAKGLEWPVVFIPGCEEGIIPCVFNDDKKDESEEDEEEDQENSKKDASPKKTRVLSVEDSIDEERRMFFVAQTRAKYLLYLSNTVTVEDVDRPRIASRFLTTDLIKAMSDSQKLFESTNSIKKLYRILNKKPPAEDDKLFSLDQLRKDYNQFIENRRERMIWQGIQMNDVYGIQLSRNKLLGSVSDFTSAADQLRLETQNSIFPQKKLIEKSRPSKINGNYAPKSRVKSPEKRYAPETTSFHSPTKKK
notes: as for B1

Substrate in one data set: Nc1ncnc2c1ncn2[C@@H]1O[C@H](COP(=O)(O)OP(=O)(O)OP(=O)(O)O)[C@@H](O)[C@H]1O
As to the kind of experiment: ATP hydrolysis, gamma-32P-ATP, thin layer chromatography. Type of data set: biochemical, Saccharomyces cerevisiae. The settings on record: M13 ssDNA 2.5 µM (nucleotides), 2 mM MgCl2, 100 mM KCl, pH 7.6, 30 °C, 40 nM protein. The text has this:
ATP hydrolysis, gamma-32P-ATP, thin layer chromatography on Srs2^898 (GFP-Srs2 1-898) | N70A, H100A, F219A, Y283A, R268A, and R389A mutant proteins were all moderately affected
As for B1, the Km amounted to 1510 ± 660 µM and the kcat was found to be 42 ± 6 sec–1.
The like results for B2 were, in that order, 1330 ± 710 µM and 45 ± 8 sec–1.
The like results for B3 were, in that order, 1600 ± 720 µM and 44 ± 7 sec–1.
Consider B4, for which the Km turned out to be 1520 ± 630 µM and the kcat came to 44 ± 6 sec–1.
The matching figures for B5: 1320 ± 670 µM and 47 ± 7 sec–1.

Substrate in another data set: Nc1ncnc2c1ncn2[C@@H]1O[C@H](COP(=O)(O)OP(=O)(O)OP(=O)(O)O)[C@@H](O)[C@H]1O
The description is as above. Type of data set: biochemical, Saccharomyces cerevisiae. The settings on record: M13 ssDNA 2.5 µM (nucleotides), 2 mM MgCl2, 100 mM KCl, pH 7.6, 30 °C, 40 nM protein. The source holds these as a separate data set.
As to B6, the Km was 1580 ± 710 µM and the kcat worked out at 51 ± 8 s⁻¹.

Usually Km stands for the substrate concentration at which the rate is half of its maximum.
